Laboratory results as given in US10801046B2, “Methods and materials for biosynthesizing multifunctional, multivariate molecules via carbon chain modification” (INVISTA NORTH AMERICA S.A.R.L., priority 2016, dated 2020).

assay: In vivo carboxylate reductase screening, substrate consumption by LC-MS, monomethyl heptanedioate; format: cell-based, Escherichia coli; details: 541 enzymes screened in vivo
Method: To screen carboxylate reductases in vivo, […] T7- pUC expression vectors was co-transformed into T7 Express lysY/Iq with the phosphopantetheinyl transferase sfp from Bacillus subtilis on a T7-pCDF expression vector. Biological duplicates of the resulting strains were incubated in 0.5 mL of terrific broth containing either 1 g/L heptanedioate or 1 g/L monomethyl heptanedioate and supplemented with 0.4 mM IPTG in 96-well deep well plates. The plates were incubated for 30 h at 30° C. in a shaking incubator. The cells were then pelleted, and culture supernatants from the same strains in media containing either heptanedioate or monomethyl heptanedioate were combined. The combined supernatants were analyzed by LC-MS to determine the concentration of heptanedioate and monomethyl heptanedioate. Carboxylate reductase activity on heptanedioate or monomethyl heptanedioate was reflected by consumption of the respective substrate in the medium.

Molecule	monomethyl heptanedioate activity
SEQ ID NO: 207: Dictyostelium discoideum carboxylate reductase (protein, listed as Dictyostelium discoideum) MINNWLAVGLLVVSGILAFNWKRKHPYGQTVEIGEKPENGGRIRRNSACADHLISFLEDDEIYTLYDSLVKSCKKYGERKCFGERKKDSNGNLGKFEWISYNTYLERCEYIQQGLCELGLKPKSKVGIFSKNRLEWLIVHSASFIQSYCVVSFYETLGVESLSYVTEHAEIGLAFCSAETLQKTLDIAKGVKVLKTIICFDSIDKEHYNIAKELGVTLYTYDEIMKKGKEANGKHKHTPPTPDTLSTIMYTSGTTGPPKGVMITHKNLTSVVCAVSDFIKVYDTDVHYSYLPYAHVLERVVILAAFHFGAAIGIFSGDISNILVEVKLLSPTLFIGVPRVFERIKTNVFKEISKKPALLRTLFNGAYNLKYLSIQHGFKLPIIEKVLDLVFFSKIKQALGGKVRVILSGSAPLSFDTEVFLRVVMCCCVLQGYGASEGCGGDACKRLDDESVGTIGPPFASNEIKLVDVPELGYDSNGEVQTGEVCLRGPSISSGYYKDEEKTREEFKDGWFHTGDIGRWNRDGSLSIVDRKKNIFKLSQGEYVAVEKIETIVVKSEYVEQVCIYGDSQKSCVIAIIHPHPESCSEWAGSKKTDKDIKEICKNQDFIKVVLDDIIKNCKKSGLHGFEIPKAIHLTPEAFSDQNNLLTPSFKLKRHEIKKYFEDEIKKLYSKLD	most monomethyl heptanedioate activity
SEQ ID NO: 208: Ascaris suum carboxylate reductase (protein, listed as Ascaris suum) MRYWWKTSHSNYKLDAVCDINNQTRELPVSVASCKDGSRVAACLDGDHLAPFIHEDALTLYEGVRRGLRVSNNGPMLGYRKKQPDGSEPYVWLTYKEVIDRAVDFAYGLLDVGIPAGQKTFIGVYAKNRPEWVIAEQGTYNNNSVLVPLYETLGPDACTFIINQSEMSMVICDTEVKAAGLLKEKENIPTLKYLVVMEDYTNGLREAAAREGVYVYHFLDIEKRGREFVNKPALQIPSPGDVCTICYTSGTTGAPKGVMLTHGNVIAAATALTFVRNINFCETDVVISFLPLAHMFERLLECIIFQTGAHVGFFSGDIRRLPEDIKELRPTVIPLVPRVLNRIYDKVMSEVNKSFIKKAVFHFALAFKVRELRNGIVRNDSVFDKLVFNKIRDAMGGRVKLMVTGSAPLAEKVMTFARAAMGCVVLEGYGQTECAAASTLGIEADTRAGHVGIPSICNAVKLVDVPELEYYAKDMVGEVCIRGFNVFKGYYKNDELTREVLDDQGWLHTGDVGRWTENGTLQIIDRKKHIFKLSQGEYVAPEKIEGIYARSKYVAQSFVHGESLKTCLVGVIVPDPEALERVAAERFGLKDVKLKELCSNEAVRQLILEDITAVGKKAGLFSFEQVKDIFLTPDAFSVGNDLLTPTLKNKRPKLKEHFAAQLESMYSKLN	most monomethyl heptanedioate activity
SEQ ID NO: 209: Nocardia brasiliensis NBRC 14402 carboxylate reductase (protein, Nocardia brasiliensis NBRC 14402, Nocardia brasiliensis NBRC 14402 carboxylate reductase) MERKAEVLAARRVEDLIERDAQVRAAIPDPVVTAELERADGSLAQTVARVMAGYADRPALGQRAVEFVPDENGCRRTRLLPWFDTITFGELWQRVGTVAAVWQSRAERSVRAGDFVAVLGSTGIDYTVVDLACTYSGAVPVPLQAGASPTQLAPIVREVEPKVLATDVGQLEVAVDLASAGDSVRSLLIFGLYAEDDEHCAAVESARRRLADTPVVVETIVELLASGQDRPAASLHASADPDELALLIYTSGSTGTPKGAMYTQRLLTNAWCAAGASPMPSIALSYLPMSHTMARQLLLTGLARGGTVYFAARNDMSTLFDDFALARPTLLGFVPRVCDMVLQRFQSEMARRVGADDEPTVVEQEVKTELREQFLGGRFLVASIGSAPLSADMREFMQSVLGIALIDAYGSTETGGVLMNNKVVRTAILDYKLVDVPELGYFSTDRPHPRGELLIKSRTLIPGYYKRPELNSQFFDAEGFYRTGDVMAQTGFDELVYVDRRNSVLKLSQGEFVAVSKLEAIFVGSPLVEQIYVYGSSERAYLLAVIVPVAEAIATHAGTAELKAAISESLRQIAKDAELSSYEVPRDFLLESEPFTVDNGLLAGLSKLLRPSLKERYGERLEALYRVAEAAQTQELAALRQQAGMLPVLETVSRAAQAVLGVSAAELRPDAHFTDLGGDSLAALSFSTLLQELLGVQVPVGVIASSANDLRRIANYAVAERSAGSLRPTSTGVHGTGSQLRAIDLRLDKFIDPSTLAAATTLPRAGEPRTVLLTGANGYLGRFLCLEWLQRLHHSGGTLICVVRGIDAVAARERLDEVFDSGDPELLHRYRELAEGTLEVLCGDISEPGLGLSERDWRRLADTVELIVHAAALVNHVLPYGQLFGPNVVGTAEIIRLAMTTRIKPVTYLSTVAVAAQVAPEQFTEDGDIREISAVRSLDEGYADGYGTSKWAGEVLLREAYDLCGLPVAVFRSDMILAHSRFAGQLNVSDMFTRLVLSVLATGVAPKSFYETDRMGNRQRAHYDGLPVDFTAQAITVLGSQVVSGFETFDVLNPHDDGLSLDEFVDWLIAAGHSIDRIDGYAEWLSRFGTALRVLSERQRQHSVLPLLHAYRRAAVPIPGAALPAKKFQAAVQDAQLGPGRDIPHLTPDLIEKYVSDLKLRNLL	most monomethyl heptanedioate activity
SEQ ID NO: 210: Rhizopus microspores carboxylate reductase (protein, listed as Rhizopus microsporus) MPPAFDPPYSVPVPGSEKKEGETVPFRHFKFADKLVDHPEGVFTAWDIFVHGYDSAGDKPFMGTRRIEDGVAKEYVWQNYPEVRTRIENFGKGMLHLGLKRQHAIGVYSVNRPEWTMTEIASYRQAFMIVALYDTLGAEAMEYIINQTSMEYIVLSADKLDNIIRLKSQIATISTAIVMDDEVDDAKKAEAEAAGIKVYTFRQVETMGSEITSESDLPKPEDIATICYTSGTTGVPKGAVITQANCVAAISAIAALGDKGTFADVNSDDIYISYLPLAHVFERVAQGIHLFRGAAIGYYQGDTLKLLDDIAELRPTVFCSVPRLFNRIYDKVLAGVKAKGGVSAYLFNTAFQSKKRHLSKTVHHWLWDRVVFTQIRQKLGGRLRFILSGSAPVSPDVMDFMRICFSAKVFEGYGQTENFCGGALTITDDNTSGVVGAPFPCSEIKLVDVPEMEYFSTDKPFPRGEICIRGTSIMQGYYQLPEKTAEAIDKDGWLHTGDIGQFDSANRLVIIDRLKNIFKLSQGEYIAPEKIEGVYQKHELVAQAFIYGDSMQSSLVGIIVPDKDAFSAWAKEHFPTVEDPYASDEVKKALLKELTAYGKENDLKGFEQMRSVYLTPNEFSIENDLLTPTFKLRRENAKKVYESQIEIMYASLSNGRAFN	most monomethyl heptanedioate activity
SEQ ID NO: 211: Theileria parva carboxylate reductase (protein, listed as Theileria parva) MNHLYSVALEGTEEEGYTPVYRNPDYKDRLLSCEDYFDGKIQTGWDIFNRGLTLSRNKPFLGSRVKNADGTFGEFKFMTYGEVEDQIKHFGSGLLNLDKFKEVFVKEENQMVKMLGIYSQNTVEWLITEQVCNGYNLTLVPLYDTLGEESLLYIINVTKLNVIVCDYKCSLKLLDLLPKSNGSVSLVVVTGVDELPDQVTAKSQSLSSVTFKTYQEVVNFGKEDPLAFTPCTKDSIGTISYTSGVSGIPKGVIVKHFQHASLVVIVNRIVCDLEKTQLENPKVHLSYLPLSHMFERLYIGTSIIEGSVIGLFSGDVKNILEDIKALRPNVFPSVPRLYMRIHDKIFSTVSQKSFLIRSLFGLGLSRKLKKIRKTGVVTHRFWDKILFNKFNTLLGGRVNWMLTGSAPLSPKIFDNIRALFSIPLVSGYGLTETCAGAFHTERYEPDSTHVGGPVPCMEFRLKSLPDYNYYTTDKNPKGELLLRGNNIVTSYFSDDVTNKESFDENKWFLTGDIAELLPNGAIRIIDRRKNIFKLSQGEYISPEKIESILNTAPILCQSYVTGKSHFLNPVAVVVPDELELELWSKRYGLANLDRKEQCEVKQLKEFIAKEIEKVFENSDVKGFEKIKNFYVEHELFSIENNLLTTTSKLKRYNLSKKYAEQIDRLNDES	most monomethyl heptanedioate activity
